Reference: patent US12522842B2, “Glutamine synthetase mutant having glufosinate resistance and application thereof and cultivation method therefor” (GEVOTO LLC, priority 2019, dated 2026)

Tests used:
[1] = tested on: glutamine synthetase-deficient Escherichia coli; assay: Growth of glutamine synthetase-deficient E. coli transformed with GS mutants in M9 medium containing glufosinate; format: cell-based; conditions: for growth of transformed GS-deficient E. coli (normal GS enzymatic activity): medium containing 0 mM glufosinate
Text: According to the sequences of the nucleic acid molecules provided in Example 4, the nucleic acid sequences encoding rice GS mutants OsA, OsC, OsD, OsE, OsF, OsG, OsH, OsI, OsK, OsP, OST, OsV, and OsY were synthesized using chemical synthesis method. Restriction digestion sites (Pac1 and Sbf1) were introduced at both ends thereof, and after restriction digestion, they were linked under the action of ligase to an expression vector (such as pADV7 vector, whose structure is shown in FIG. 4) that was subjected to the same restriction digestion treatment. Then, glutamine synthetase-deficient Escherichia coli was transformed with the resultant. After verification, positive clones were picked up and inoculated in M9 medium containing different concentrations of glufosinate to grow, and the growth status of defective Escherichia coli was observed.
With wild-type rice GS (its amino acid sequence shown in SEQ ID NO. 1 and its encoding gene shown in SEQ ID NO. 4) as a negative control, the glufosinate resistance for the GS mutant OsA (S59A, wherein the amino acid S at site 59 of the rice GS is mutated into A), OsC (S59C), OsD (S59D), OsE (S59E), OsF (S59F), OsG (S59G), OsH (S59H), OsI (S591), OsK (S59K), OsP (S59P), OsT (S59T), OsV (S59V), OsY (S59Y) was detected.
With reference to the detection method of Experimental Example 1, glufosinate resistance of the rice GS mutant OsGR (S59G and H296R, the amino acid S at site 59 of rice GS is mutated into G and the amino acid H at site 296 is mutated into R), the wheat GS mutant TaGR (S59G and H296R, the amino acid S at site 59 of wheat GS is mutated into G and the amino acid H at site 296 is mutated into R), the soybean GS mutant GmGR (S59G and H296R, the amino acid S at site 59 of soybean GS is mutated into G and the amino acid H at site 296 is mutated into R) provided in Example 2 was verified.
With reference to Experimental example 1, the glufosinate resistance of rice GS mutants OA, OD, OE, OG, OI, OK, OM, OP, OQ, OR, OS, OT, and OV provided in Example 3 was detected according to the following method.
With wild-type rice GS as a negative control, the glufosinate resistance of GS mutants OA (H296A, amino acid H at site 296 of rice GS is mutated into A), OD (H296D), OE (H296E), OG (H296G), OI (H2961), OK (H296K), OM (H296M), OP (H296P), OQ (H296Q), OR (H296R), OS (H296S), OT (H296T), OV (H296V) was detected.

[2] = molecular target: rice GS (glutamine synthetase); assay: Enzymatic activity of purified rice GS: kinetic parameters and glufosinate IC50; format: biochemical, rice (Oryza sativa); conditions: inhibition of rice GS by glufosinate
Text: OsC, OsF, OsG, OsH, OsP, and OsY provided in Example 1, OR provided in Example 3, and rice GS mutant OsGR and wheat GS mutant TaGR provided in Example 2 were detected for their enzymatic kinetic parameter, and enzymatic kinetic parameter in the presence of glufosinate, using wild-type rice GS OsGS_WT and wild-type wheat GS TaGS_WT as controls according to the following method.
The nucleic acid sequences encoding the above mutants were each cloned into a prokaryotic expression vector pET32a, and the clone was verified by sequencing.
The mutant enzyme protein was purified with 6His by a standard method, and its concentration was determined with a protein concentration assay kit with Bradford method. The protein was stored in a protein storage solution.
ELIASA (Detielab, HBS-1096A), glufosinate, substrate sodium L-glutamate (CAS: 6106-04-3).
(1) The composition of a reaction solution for determination of enzymatic activity of glutamine synthetase were as follows: 100 mM Tris-HCl (pH 7.5), 10 mM ATP, 20 mM sodium L-glutamate, 30 mM hydroxylamine, 20 mM MgCl2. 100 μl of the reaction solution after mixed thoroughly was preheated at 35° C. for 5 min, and 10 μl of mutant protein solution (protein concentration of 200 μg/ml) was added to start the reaction. After reaction at 35° C. for 30 min, 110 μl of color developing solution (55 g/L FeCl3·6H2O, 20 g/L trichloroacetic acid, 2.1% concentrated hydrochloric acid) was added to terminate the reaction. The absorbance at 540 nm was measured.

[3] = media containing 2 mM, 5 mM, 10 mM, and 20 mM glufosinate
[4] = medium containing 10 mM glufosinate
[5] = medium with 50 mM/100 mM glufosinate

Molecule	growth of transformed E. coli (glufosinate resistance) [1, 3]	growth of transformed GS-deficient E. coli (normal GS enzymatic activity) [1]	IC50 ([2]; read-out: glufosinate resistance parameter IC50)	growth of transformed E. coli (glufosinate resistance) ([1]; media containing 10 mM, 20 mM and 300 mM glufosinate)	growth of transformed E. coli (glufosinate resistance) [1, 4]	glufosinate resistance parameter IC50 [2]	growth of transformed E. coli (glufosinate resistance) [1, 5]
GmGS_WT: wild-type soybean glutamine synthetase, SEQ ID NO. 3, control (protein, Glycine max, 3, control) MSLLSDLINLNLSDTTEKVIAEYIWIGGSGMDLRSKARTLPGPVSDPSKLPKWNYDGSSTGQAPGEDSEVIIYPQAIFRDPFRRGNNILVICDTYTPAGEPIPTNKRHDAAKVFSHPDVVAEETWYGIEQEYTLLQKDIQWPLGWPVGGFPGPQGPYYCGVGADKAFGRDIVDAHYKACLYAGINISGINGEVMPGQWEFQVGPSVGISAGDEVWAARYILERITEIAGVVVSFDPKPIQGDWNGAGAHTNYSTKSMRNDGGYEVIKTAIEKLGKRHKEHIAAYGEGNERRLTGRHETADINTFLWGVANRGASVRVGRDTEKAGKGYFEDRRPASNMDPYVVTSMIADTTILWKP	could hardly grow	could normally grow	–	–	–	–	–
GmGR (protein, GmGR) MSLLSDLINLNLSDTTEKVIAEYIWIGGSGMDLRSKARTLPGPVSDPSKLPKWNYDGSGTGQAPGEDSEVIIYPQAIFRDPFRRGNNILVICDTYTPAGEPIPTNKRHDAAKVFSHPDVVAEETWYGIEQEYTLLQKDIQWPLGWPVGGFPGPQGPYYCGVGADKAFGRDIVDAHYKACLYAGINISGINGEVMPGQWEFQVGPSVGISAGDEVWAARYILERITEIAGVVVSFDPKPIQGDWNGAGAHTNYSTKSMRNDGGYEVIKTAIEKLGKRHKEHIAAYGEGNERRLTGRRETADINTFLWGVANRGASVRVGRDTEKAGKGYFEDRRPASNMDPYVVTSMIADTTILWKP	significantly grew	could normally grow	–	–	–	–	–
TaGR (protein, TaGR) MALLTDLLNLDLTDSTEKIIAEYIWIGGSGMDLRSKARTLPGPVTDPSKLPKWNYDGSGTGQAPGEDSEVILYPQAIFKDPFRKGNNILVMCDCYTPAGVPIPTNKRYNAAKIFSNPDVAKEEPWYGIEQEYTLLQKDINWPLGWPVGGFPGPQGPYYCSIGADKSFGRDIVDSHYKACLFAGVNISGINGEVMPGQWEFQVGPTVGISAGDQVWVARYLLERITEIAGVVVTFDPKPIPGDWNGAGAHTNYSTESMRKDGGFKVIVDAVEKLKLKHKEHIAAYGEGNERRLTGKRETADINTFSWGVANRGASVRVGRETEQNGKGYFEDRRPASNMDPYVVTSMIAETTILWKP	significantly grew	could normally grow	–	–	–	–	–
OsGS_WT: wild-type rice glutamine synthetase, SEQ ID NO. 1, negative control (protein, listed as Oryza sativa) MASLTDLVNLNLSDTTEKIIAEYIWIGGSGMDLRSKARTLSGPVTDPSKLPKWNYDGSSTGQAPGEDSEVILYPQAIFKDPFRKGNNILVMCDCYTPAGEPIPTNKRHNAAKIFSSPEVASEEPWYGIEQEYTLLQKDINWPLGWPVGGFPGPQGPYYCGIGADKSFGRDIVDSHYKACLYAGINISGINGEVMPGQWEFQVGPSVGISAGDQVWVARYILERITEIAGVVVSFDPKPIPGDWNGAGAHTNYSTKSMRNDGGYEIIKSAIEKLKLRHKEHISAYGEGNERRLTGRHETADINTFSWGVANRGASVRVGRETEQNGKGYFEDRRPASNMDPYIVTSMIAETTIIWKP	–	could normally grow	700 µM	could hardly grow	could hardly grow	–	–
OsH: rice GS mutant, S59H versus SEQ ID NO. 1 (SEQ ID NO. 13) (protein, OsH) MASLTDLVNLNLSDTTEKIIAEYIWIGGSGMDLRSKARTLSGPVTDPSKLPKWNYDGSHTGQAPGEDSEVILYPQAIFKDPFRKGNNILVMCDCYTPAGEPIPTNKRHNAAKIFSSPEVASEEPWYGIEQEYTLLQKDINWPLGWPVGGFPGPQGPYYCGIGADKSFGRDIVDSHYKACLYAGINISGINGEVMPGQWEFQVGPSVGISAGDQVWVARYILERITEIAGVVVSFDPKPIPGDWNGAGAHTNYSTKSMRNDGGYEIIKSAIEKLKLRHKEHISAYGEGNERRLTGRHETADINTFSWGVANRGASVRVGRETEQNGKGYFEDRRPASNMDPYIVTSMIAETTIIWKP	–	could normally grow	–	–	significantly superior to that of the negative control	much higher than those of the wild-type controls	significantly grew
OsY: rice GS mutant, S59Y versus SEQ ID NO. 1 (SEQ ID NO. 19) (protein, OsY) MASLTDLVNLNLSDTTEKIIAEYIWIGGSGMDLRSKARTLSGPVTDPSKLPKWNYDGSYTGQAPGEDSEVILYPQAIFKDPFRKGNNILVMCDCYTPAGEPIPTNKRHNAAKIFSSPEVASEEPWYGIEQEYTLLQKDINWPLGWPVGGFPGPQGPYYCGIGADKSFGRDIVDSHYKACLYAGINISGINGEVMPGQWEFQVGPSVGISAGDQVWVARYILERITEIAGVVVSFDPKPIPGDWNGAGAHTNYSTKSMRNDGGYEIIKSAIEKLKLRHKEHISAYGEGNERRLTGRHETADINTFSWGVANRGASVRVGRETEQNGKGYFEDRRPASNMDPYIVTSMIAETTIIWKP	–	could normally grow	–	–	significantly superior to that of the negative control	much higher than those of the wild-type controls	significantly grew
OsI (protein, OsI) MASLTDLVNLNLSDTTEKIIAEYIWIGGSGMDLRSKARTLSGPVTDPSKLPKWNYDGSITGQAPGEDSEVILYPQAIFKDPFRKGNNILVMCDCYTPAGEPIPTNKRHNAAKIFSSPEVASEEPWYGIEQEYTLLQKDINWPLGWPVGGFPGPQGPYYCGIGADKSFGRDIVDSHYKACLYAGINISGINGEVMPGQWEFQVGPSVGISAGDQVWVARYILERITEIAGVVVSFDPKPIPGDWNGAGAHTNYSTKSMRNDGGYEIIKSAIEKLKLRHKEHISAYGEGNERRLTGRHETADINTFSWGVANRGASVRVGRETEQNGKGYFEDRRPASNMDPYIVTSMIAETTIIWKP	–	could normally grow	–	–	significantly superior to that of the negative control	–	significantly grew
OsG (protein, OsG) MASLTDLVNLNLSDTTEKIIAEYIWIGGSGMDLRSKARTLSGPVTDPSKLPKWNYDGSGTGQAPGEDSEVILYPQAIFKDPFRKGNNILVMCDCYTPAGEPIPTNKRHNAAKIFSSPEVASEEPWYGIEQEYTLLQKDINWPLGWPVGGFPGPQGPYYCGIGADKSFGRDIVDSHYKACLYAGINISGINGEVMPGQWEFQVGPSVGISAGDQVWVARYILERITEIAGVVVSFDPKPIPGDWNGAGAHTNYSTKSMRNDGGYEIIKSAIEKLKLRHKEHISAYGEGNERRLTGRHETADINTFSWGVANRGASVRVGRETEQNGKGYFEDRRPASNMDPYIVTSMIAETTIIWKP	–	could normally grow	–	–	significantly superior to that of the negative control	–	significantly grew
